Experimental findings from patent US11268120B2, “Identification of transglutaminase substrates and uses therefor” (Roche Sequencing Solutions, Inc., priority 2014, dated 2022) are described below.

No end group written: not given here. *: point of attachment. Cbz = O=C(OCc1ccccc1)*

Test [1] has as its target T1, MTG (Streptomyces mobaraensis, UniProt P81453).
T1 construct: purchased Zedira GmbH
T1 sequence (P81453 77-407): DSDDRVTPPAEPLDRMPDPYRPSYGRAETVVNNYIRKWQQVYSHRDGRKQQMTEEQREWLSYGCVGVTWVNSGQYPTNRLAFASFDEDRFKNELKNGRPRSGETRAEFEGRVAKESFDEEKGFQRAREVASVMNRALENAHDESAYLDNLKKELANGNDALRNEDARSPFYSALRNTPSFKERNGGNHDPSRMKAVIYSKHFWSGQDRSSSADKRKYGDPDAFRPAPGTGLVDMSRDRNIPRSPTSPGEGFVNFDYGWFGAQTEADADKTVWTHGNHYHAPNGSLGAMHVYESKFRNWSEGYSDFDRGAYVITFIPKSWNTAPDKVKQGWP
The test can be described thus: GLDH-coupled continuous assay for MTG activity in solution, Lys-containing substrate peptides. Type of test: biochemical. As to the method:
(§1) FIG. 3 is a plot of MTG activity obtained by measuring rates of NADH oxidation at 340 nm and 37° C. using various concentrations of the di-peptide QG (1-20 mM) and the peptide […] (SEQ ID NO: 86) (0.2-5 mM) in the GLDH-coupled assay. The Michaelis-Menten equation was used to fit hyperbolic curves to the data points, giving Km and Vmax parameters and allowing calculation of turnover number (kcat) and catalytic efficiency (kcat/KM). Improved performance of array selected […] (SEQ ID NO: 86) (open squares) substrate was observed compared to standard QG-substrate (filled squares). ‘Z’ represents a carboxybenzyl protective group. […] The Michaelis-Menten equation was used to fit hyperbolic curves to the data points, giving Km and Vmax parameters as well as allowing calculation of turnover number (kcat) and catalytic efficiency (kcat/KM). Improved performance of array selected […] (SEQ ID NO: 80) (filled squares) substrate was observed as compared to a […] (SEQ ID NO: 81) substrate (filled circles). ‘Z-’ represents a carboxybenzyl protective group.
Lys-tag peptides were assayed in solution analog to the Gln-containing substrates: The assay was performed in a 96-well microtiter plate in the presence of 1.25 mM α-ketoglutarate, 100 μM Z-[…] (SEQ ID NO: 86) peptide as […], 0.2 U of glutamate dehydrogenase (GLDH), 500 μM NADH and Lys-containing substrate peptide concentrations ranging between 0 and 500 μM in 200 mM MOPS, 1 mM EDTA pH 7.2 (total volume per well 200 μl). The reaction was started by the addition of 0.1 U of MTG (Zedira GmbH) and the oxidation of NADH was continuously recorded against a blank at 340 nm for 20 min using a Biotek Synergy H4 microplate reader thermostated at 37° C. with short shaking intervals before each measurement. After a short lag phase, where the GLDH was saturated by MTG-mediated release of ammonia, linear rates of absorbance versus time, corresponding to MTG turnover, were observed, and subjected to Michaelis-Menten kinetic analysis.

In test [2] the target is T1, MTG. As to the kind of experiment: GLDH-coupled continuous assay for MTG activity in solution, Gln-containing substrate peptides. Type of test: biochemical. The note with it: pH 7.2, 37° C. The procedure:
as §1
It was next determined whether peptides selected in the array assay were also preferred substrates in the solution reaction. The performance of the […] (SEQ ID NO: 26) peptide found in the array assay and the QG peptide substrate commonly used for testing MTG activity were compared. […]
The assay was performed in a 96-well microtiter plate in the presence of 10 mM α-ketoglutarate, 10 mM glycine methyl ester as acyl acceptor, 2 U of glutamate dehydrogenase (GLDH), 500 μM NADH (i.e., reduced nicotinamide adenine dinucleotide) and Gln-containing substrate peptide concentrations ranging between 0.2 and 20 mM in 200 mM MOPS (i.e., 3-(N-morpholino)propanesulfonic acid), 1 mM EDTA pH 7.2 (total volume per well 200 μl). The reaction was started by the addition of 0.1 U of MTG (Zedira GmbH) and the oxidation of NADH was continuously recorded against a blank at 340 nm for 20 min using a Biotek Synergy H4 microplate reader thermostated at 37° C. with short shaking intervals before each measurement. […]

The nature of test [3]: BIACORE 3000 binding kinetics of VitDBP constructs to biotin labeled 25-OH-VitD2. The note with it: 25° C. As to the method:
Experiments were carried out to determine whether the addition of an array-selected motif interferes with the ability of VitDBP to bind to its natural ligand, 25-hydroxylated vitamin D2 (25-OH-VitD2). The glutamine donor motif selected for use was […] (i.e., SEQ ID NO 86). A BIACORE SA sensor was mounted into a BIACORE 3000 instrument. The instrument was tempered at 25° C. The sensor was preconditioned as recommended by the manufacturer (GE Healthcare). The system buffer was PBS pH 8.2 with 5% DMSO and 0.05% TWEEN20. The sample buffer was the system buffer supplemented with 1 mg per ml CMD (Sigma). From a 300 nM biotin labeled 25-OH-VitD2 (25-OH-VitD2-bi) sample solution 860 RU were captured on the sensor flow cell 2 by a 2 min injection at 10 μl per minute. The sensor surface was finally saturated by 5 μM amino-PEO-biotin (Pierce). As a reference, 1 μM amino-PEO-biotin was injected into flow cell 1 for 1 min at a rate of 10 μl per minute.
The analytes wt-VitDBP-His8 and wt-VitDBP-His8-Q2 were compared for their binding behavior towards 25-OH-VitD2. The Gln-motif was later ruthenylated by an MTG catalyzed reaction as described (FIGS. 10A and 10B).
The analytes were injected in concentration series of 600 nM, 200 nM, 67 nM, 22 nM, 7.4 nM and 0 nM (buffer only). The analyte association was monitored for 3 min and the dissociation for 5 min both at 20 μl per minute (FIGS. 11 and 12).
After each injection the system was regenerated by a 100 mM HCl injection for 1 minute and 15 seconds at 20 μl per minute followed by a 2 min injection of 10 mM glycine buffer pH 1.5. The data was overlayed in a BIACORE sensorgram and kinetic data was calculated by fitting a Langmuir 1:1 binding model to the data obtained as recommended by the manufacturer using the Biaevaluation Software version 4.1.

Regarding Z-GGGARSKLGGGG, the “apparent difference in MTG catalytic efficiency compared to low-signal substrate GGGDEKPDGGGG” value in test [1] is “at least 10 fold”. Also, the Km in test [1] (Lys-peptide 0-500 μM, 100 μM Z-GGGDYALQGGGG, pH 7.2, 37° C.) was found to be 66.8 ± 20.2 µM. Also, the Vmax in test [1] (Lys-peptide, 0.1 U MTG, pH 7.2, 37° C.) came to 5.1 ± 0.5 pmol/s. Further, in test [1] (Lys-peptide, pH 7.2, 37° C.), the kcat came out at 0.066 s⁻¹.

On to “Z-GGGDEKPDGGGG (Cbz-GGGDEKPDGGGG) [reference compound]”, for which, in test [1] (kinetic data could not be determined), the “MTG activity (in words)” value was “extremely low activity”.

As for Z-GGGDYALQGGGG (Cbz-GGGDYALQGGGG), the Km in test [2] (Gln-peptide 0.2-20 mM, 10 mM glycine methyl ester as acyl acceptor) came out at 970 ± 320 µM. In addition, in test [2] (Gln-peptide, 0.1 U MTG), the Vmax worked out at 0.46 ± 0.06 nmol/s. For the same molecule, the kcat in test [2] (Gln-peptide) is 6.0 s⁻¹.

B1: wt-VDBP-His8: wild type vitamin D binding protein with C-terminally fused 8× Histidine tag, without Q2 tag (protein, UniProt P02774 17-474, looked up)
Vitamin D-binding protein: LERGRDYEKNKVCKEFSHLGKEDFTSLSLVLYSRKFPSGTFEQVSQLVKEVVSLTEACCAEGADPDCYDTRTSALSAKSCESNSPFPVHPGTAECCTKEGLERKLCMAALKHQPQEFPTYVEPTNDEICEAFRKDPKEYANQFMWEYSTNYGQAPLSLLVSYTKSYLSMVGSCCTSASPTVCFLKERLQLKHLSLLTTLSNRVCSQYAAYGEKKSRLSNLIKLAQKVPTADLEDVLPLAEDITNILSKCCESASEDCMAKELPEHTVKLCDNLSTKNSKFEDCCQEKTAMDVFVCTYFMPAAQLPELPDVELPTNKDVCDPGNTKVMDKYTFELSRRTHLPEVFLSKVLEPTLKSLGECCDVEDSTTCFNAKGPLLKKELSSFIDKGQELCADYSENTFTEYKKKLAERLKAKLPDATPTELAKLVNKHSDFASNCCSINSPPLYCDSEIDAELKNIL
modifications: His8 tag
As to B1, in test [3] (Langmuir 1:1 binding model), binding was put at a Kd of 95 nM, the ka was found to be 13800 M⁻¹ s⁻¹ and the kd was determined as 0.00131 s⁻¹. Further, the affinity in test [3] (Ligand VitD2-250H-biotin (300 nM)), expressed as Kd, was 95 nM.
